A short description of the series: yeast display, Sf9 membrane polyspecificity reagent, FACS + sequencing; frameworks hold sequencing errors. The method in brief:
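A nanobody's polyreactivity label depends on the gate it was sorted from. Yeast display cells were stained with 10% biotinylated, detergent-solubilized Sf9 membrane reagent for 1 hour at 4 °C, enriched on streptavidin microbeads and sorted by FACS. The low and high (top ~1%) gates were set on anti-HA fluorescence for expression and streptavidin fluorescence for reagent binding.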
On to “QVQLEESGGGLVQAGGSLRLSCAASGRTIIINTMGWYRQAPGKERELVAAISKNGATTNYADSLKGRFTISRDNAKNTVYLQMNSLKPEDTSVYYCNARYSGYLRLDYWGQGTQVNVSS”, for which the “polyreactivity (PSR sort gate)” value was “low polyreactivity”.

For the sequence “QVQLVVSGGGLVQAGGSLRLSCAASGYIFVYNAMGWYRQAPGKERELVSAITDGGGSTYADSVKGRFTISRDNAKNTVYLQMNSLKPEDTAVYYCAALYSDTTWYVLYYYWGQGTQVTVSS”, the “polyreactivity (PSR sort gate)” value is “low polyreactivity”. “QVQLVESGGGLVQAGGSLRLSCAASGSILGPNAMGWYRQAPGKERELVARISTSGGSTYYADSVKGRFTISRDNAKNTVYLQMNSLKPEDTAVYYCATGLVWWRSPYDYWGQGTQVTVSS”: the “polyreactivity (PSR sort gate)” value was “high polyreactivity”.

Consider “QVQLVESGGGLVQAGGSLRLSCAASGFIFNKYAMGWYRQAPGKERQLVATIRRDGSTNYADSVKGRFTISRDNAKNTVYLQMNSLKPEDTAVYYCAVRPYYWSRDYYWGQGTQVTVSS”, for which the “polyreactivity (PSR sort gate)” value is recorded as “high polyreactivity”. On to “QVQLVESGGGLVQAGGSLRLSCAASGIILGSNAKGWYRQAPGKERELVAGITSGGGTYYADSVKGRFTISRDNAKKTVYLQMNSLKPEDTAVYYCAKLYFHYYRYGYWGQGTQVTVSS”, for which the “polyreactivity (PSR sort gate)” value was “low polyreactivity”. On to “QVQLVESGGGLVQAGGSLRLSCAASGRTSYGYAIGWYRQAPGKERELVAAITYGGGSTYYADSVKGRFTISRDNEKNTVYLQMNSLKPEDTAVYYCAADRTGSTLYTIRYYYWGQGTQVTVSS”, for which the “polyreactivity (PSR sort gate)” value is recorded as “low polyreactivity”. With “QVQLVESGVCLVQAGGSLRLSCASSGLIIPPNAMGWYRQPPGKERELVASITRSGGSTYYADSVKGRFTISRDNAKNTVYVQMNSLTPEDTAVYYCAAYLDTSRYGVLYDYWGQGTQVTVSS” the entry was “low polyreactivity”; with “QVQLVDSGGGLVQAGGSLRLSCAASGFTFYLNTMGWYRQAPGKERELVAAIDLSDGTTYYADSVKGRFTISRDNAKNTVYLQMNSLKPEDTAVYYCAAESYEEWTSSGLDWTDDYWGQGTQVTVSS”, “high polyreactivity”; with “QVQLVESGGGLVQAGGSLRLSCAASGFTFAQYAMGWYRQAPGKERELVATISRRGGSTYYADSVKGRFTISRDNAKNTVYLQMNSLKPEDTAVYYCTAAKYLYRHGFLSAGDMYYWGQGTQVTVSS”, “high polyreactivity”. With “QVQLVESGGGLVQAGGSLRLSCAASGSIFGYYAMGWYRPATGKEREFVAAITSSGGSTYYADSVKGRFTISRDNAKNTVYLQMNSLKPEDTAVYYCNAGAWQLYWYRYEYWGQGTQVTVSS” the entry was “high polyreactivity”. As for “QVQLVESGGGLVQAGGSLRLSCAASGFIFHFNAMGWYRQAPGKERELVAAISRTGGTTYYADSVKGRFTISRDNAKNTVYLQMNSLKPEVTAVYYCAAYSTYVQHYDYWGQGTQVTVSS”, the entry is “high polyreactivity”; as for “QVQLVESGGGLVQAGGSLRLSCAASGFTFRVNAMGWYRQAPGKERELVARISSSGGITYYADSVKGRFTISRDNAKNTVYLQMNSLKPEDTAVYYCAKEVYSGYSTRARSRYYEYYYWGQGTQVTVSS”, “high polyreactivity”. Take “QVQLVESGGGLVQAGGSLRLSCAASGNTLRYNVMGWYRQAPGKERELVAAISGGGSTSYTDSVKGRFTISRDNAKNTVYLQMNSLKPEDTAVYYCAKRSFVGGRGRDSDYWGQGTQVTVSS”: the “polyreactivity (PSR sort gate)” value is given as “low polyreactivity”. With “QVQLVESGGGLDQARGSLRLSCAASGSIFWKYAMGWYRQAPWKERELVAAISRSSSTTYYADSVKGRFTISRDNAKNTVYLQMNSLKPEDTAVYYCAAYYRSRVSDDYWGQGTQVTVSS” the entry was “high polyreactivity”. As for “QVQLVESGGGLVQAGGSLRLSCAASGSTFQVYAMGWYRQAPGKERELVAAISYRDGNTYYADSVKGRFTISRDNAKNTFYLQMNSLKPEDTAVYYCNAGLYLPSGYRRSNGYESDYWGQGTQVTVSS”, the entry is “high polyreactivity”.

Regarding “QVQLVESGGGLVQAGGSLRLSCAASGSIFGKNAMGWYRQAPGKERELVAAISFSGGSTYYADSVKGRFTISRDNAKNTVYLQMNSLKPEDTAVYYCAARKYSWYPAGGYDYWGQGTQVTVSS”, the “polyreactivity (PSR sort gate)” value is on record as “high polyreactivity”. As for “QVQLVESGGGLVQAGGSLSLSCAASGRIFSNYAMGWYRQAPGKERELVADISSRGVSTYYADSVKGRFTISRDNAKNPGYLQMKSLKPEDTAVYYCAARGYQRQYYYWGQGTQVTVSS”, the entry is “high polyreactivity”; as for “QVQLVESGGGLVQAGGSLRLSCAASGLIFSWYDMGWYRQAPGKERELVDAITTDGDDTYYADSVKGRFTISRDNAKNTVYLQMKSLKPEDTAVYYCDAVSEVAIRYPDRDYDSWGQGTQVTVSS”, “low polyreactivity”; as for “QVQLVESGGVLVQAGGILRLSCAASVRTFYRYAMGWYRQAPGKERELVAAITSGDRTNYADSVKGRFTMSRDNAKNTVYLQMNSLKPEYTADYYCAARRDYWAPYYYWGQGTQVTVSS”, “high polyreactivity”. With “QVQLVESGGGLVQAGGSLRLSCAASGFTFDSYAMGWYRQAPGKERELVAAITWDGGSTYYADSVKGRFTISRDNAKNTVYLQMNSLKPEDTAVYYCAADFGTISIDVYSWMDYWGQGTQVTVSS” the entry was “low polyreactivity”; with “QVQLVESGGVLVQAGGSLRLSCAASGSAFRENDMGWYRQAPGKERELVAAITFSGGSTYADSVKGRFTISRDIAKNTVYLQMNSLKPEDSAVYYCSADTLPAEYEYDYWGQGTQVTVSS”, “low polyreactivity”; with “QVQLVESRGGLVQAGGSLRLTCAASGYTFVYNGMGWYRQAPGKERELVAAFRRRTGTTYYADSVKGRFTISRDNAKNTVYLQMNSLKPEDSSVYYSAATGFWCYDWGQGSQVTVSS”, “high polyreactivity”. As for “QFQLVESGGGLVQAGGSLRLSCAASGSIFSINAMGWYRQAPGKERELVAVISWIGGNTYYADSVKGRFTISRDNAKNTVYLQMNSLKPEDTAVYYCAVATGPVSYRRYYWGQGTQVTVSS”, the entry is “high polyreactivity”; as for “QVQLVESGGGLVQAGGSLRLSCAASGGTFQSNALGWYRQAPAKERELVASITSRGSSTYYADSVKGRFTISRDNAKNTVYLQMNSLKPEDTAVYYCAKGRSWQIYYKGGIKGGYWGQGTQVTVSS”, “low polyreactivity”. Consider “QVQLEESGGGLVQAGGSLRLSCPPSGSTYYVYAMGWYRPAPGKERELVAAIDGGDTYYADSVKGGFTISRDNAMNTVFLQMNSLKPEDTAVYYCAAESLPEISVGLGFWGQGTQVTVSS”, for which the “polyreactivity (PSR sort gate)” value is recorded as “low polyreactivity”. In the case of “QVQLVDSGGGLVQAGGSLRLICAASGSTLGQYAMGWYRQAPGKERELVAAITARTGRTYYADSVKGRFTISRDNAKNTVYLQMNSMKPEDTAVYYCASVTFSYQDYYWGQGTQVTVSS”, the “polyreactivity (PSR sort gate)” value is “high polyreactivity”. As for “QVQLVESGGGLVQAGGILRLSCAASARIFTYKAMGWYRQAPGKERELVAAITNGGSTYYADSVKGRFTISRDNAKNTVYLQMNSMKPEDTAVYYCNRVVYRPRYRYGYWGQGTQVTVSS”, the “polyreactivity (PSR sort gate)” value is reported as “high polyreactivity”.

“QVQLVESGGGLVQAGGSLRLSCAASGSTFDKYTMGWYRQAPGKDRELVAAISWSGGSTYASSVKGRFTMSRDNAKNTVYLQMTCLKPEDTAVYSCAARYRNYDLWLGNRRGSYYSWGQGTQVTVSS”: the “polyreactivity (PSR sort gate)” value is reported as “high polyreactivity”. As to “QVQLQESGGGLEQAGGSLRLSCAATGTIFTDRFMGWYRQAPGKERELVAGISPGTSSNSADSVKGRFTISRDNAKNTVYLQMNSLKPEDTAVYYCAADWSTGNTLPYWGQGTQVTVSS”, the “polyreactivity (PSR sort gate)” value is “high polyreactivity”. With “QVQLVESGGGLVQAGGSLRLSCASSGSIFYVNTMGWYRQAPGKERELVATISVSGGSTNYADSVKGRFTISRDNAKNTVYFQMNSLKPEDTAVYYCAEAYLRYYDGPYDYWGQGTQVTVSS” the entry was “low polyreactivity”; with “QVQLVESGGGLVQAGGSLRLSCAASGSIFSYYAMGWSSQAPGKERELVAAISKRGASTYYADSVKGRFSISRDIAKNTVYLQMNSLKPEDTAVYYCAAYRQGSAYDYWGKGTQVTVSS”, “high polyreactivity”.

For “QVQLVESGGGLVQAGGSLRLSCAASGSIFPAYAMGWYRQAPGTERELVAAITFSGGRTYYADSVKGRFTISRDNAKNTVYLQMNSLKPEDTAVYDCAAYGAPSGTGAKYGYWGQGTQVTVSS”, the “polyreactivity (PSR sort gate)” value was “low polyreactivity”. “QVQLVESGGGLVQAGGSLRLSCAASGIFFPNAMGCYRQAPGKERELVAAISWTGGSTFYADSVKGRFTISRDNAKNTVYLQMNSLKPEDTAVYYCAAEEYYAGWTYDYWGQGTQVTVSS”: the “polyreactivity (PSR sort gate)” value is “high polyreactivity”. As for “QVQLVESGGGLVQAGGSLRLSCAASGFTFPVYVMGWYRQAPGKERELVSAISGGGGTYYADSVKGRFTISRDNAKNTVYLQMNSLKPEDTAVYYCAADYRTYVYVYGFRHFDYWGQGTQVTVSS”, the entry is “low polyreactivity”; as for “QVQLVESGGGLVQAGGSLRLSCAASGRIFGGYAMGGYRQAPGKERELVAAISSRGTRTYYADSVKGRITISRDNAKNTVYLQMNSLKPEDTAVYYCATAYRGFHYSPLRELDYWGQGTQVTVSS”, “high polyreactivity”. With “QVQLVESGGGLVQAGGSLRLSCAASGRIFRANAMGWYRQAPGKERELVAAISYRGGSTYYADSVKGRFTISRDNAKNTVYLQMNSLKPEDTAVYYCAADSDRSVWIYGYWGQGTQVTVSS” the entry was “low polyreactivity”; with “HVQLQESGGGLVQAGGSLRLSCAASGNISYSRNMGWYRQAPGKERELVAAIDRGAITYYADSVKGRFTISRDNAKNTVYLQRYSLKPEDTAVYYCAAEYHDRWDHRYWGQGTQVTVSS”, “high polyreactivity”.

In the case of “QVQLVESGGGLVQAGGSLRISCADCGSIFEVNAMGWYRPAPGTERELVAAISSGDRTNYADSVKGRFTISRDNAKNTVYLQMNSLKPEDTAVYYCNKGAAWRPFFGPYYNYEYWGQGTQVTVSS”, the “polyreactivity (PSR sort gate)” value is “high polyreactivity”. With “QVQLVESGRGLVQAGGSLRLSCAASGITFSYYTMGWYRQAPGKERELVAAINWNGGSTYYADSVKGRFTISRDNAKNTVYLQMNSLKPEDTAVYYCAREKWPSQYDYWGQGTQVTVSS” the entry was “low polyreactivity”; with “QVQLVESGGGLVQAGGSLRLSCAASGIPFYVKDMGWYRQAPGKDWDCVAAISYRGGSTYYADSVKGRFTISRDNAKNTVYLQMNSLKPEDTAVYYCAADYNYWSPHRDDYWGQGTQVTVSS”, “low polyreactivity”.

Values taken from the nanobody polyreactivity screen of Harvey et al. (2022).
